# Measured values as given in article PMC8890701 (Science Advances, 2022).
# B1: sybody C (VHH)
# VHH: QVQLVESGGGSVQAGGSLRLSCAASGTIHAIGYLGWFRQAPGKEREGVAALTTYDGWTYYADSVKGRFTVSLDNAKNTVYLQMNSLKPEDTALYYCAAADDGWMFPLYHNHYEYWGQGTQVTVSA
# Tests used:
# [1] = target: S. pneumoniae LicB (S. pneumoniae); test: cryo-EM structure
# S. pneumoniae LicB = target: T1, S. pneumoniae LicB (Streptococcus pneumoniae TIGR4 (ATCC …)); test: cryo-EM structure
# T1 chain: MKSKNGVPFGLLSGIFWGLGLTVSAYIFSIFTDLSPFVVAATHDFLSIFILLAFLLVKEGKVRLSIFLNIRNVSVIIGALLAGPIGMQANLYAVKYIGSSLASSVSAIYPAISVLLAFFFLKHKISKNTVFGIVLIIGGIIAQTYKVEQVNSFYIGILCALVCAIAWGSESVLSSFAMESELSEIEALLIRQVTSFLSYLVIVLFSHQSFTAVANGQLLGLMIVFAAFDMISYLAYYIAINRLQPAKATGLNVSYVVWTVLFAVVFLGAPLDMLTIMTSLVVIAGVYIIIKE
molecule,measurement,setting,value
S. pneumoniae LicB (natural protein),stoichiometry N,[1],2
B1,binding result,S. pneumoniae LicB,binds
